Laboratory results published in US20240409645A1 (DUALYX, published 2024).
Where a chain is given by its changes, count along the chain named.

T1: mouse IL-2Rγ (mouse, UniProt P34902 23-263)
T1 construct: also called mo IL-2R
T1 sequence (looked up): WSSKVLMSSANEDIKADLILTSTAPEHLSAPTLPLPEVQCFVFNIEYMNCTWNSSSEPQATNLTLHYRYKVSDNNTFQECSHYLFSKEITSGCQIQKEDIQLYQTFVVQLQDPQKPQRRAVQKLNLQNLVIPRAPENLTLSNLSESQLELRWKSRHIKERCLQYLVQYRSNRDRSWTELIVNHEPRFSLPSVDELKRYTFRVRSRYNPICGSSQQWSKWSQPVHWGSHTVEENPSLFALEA

T2: human IL-2Rγ (common cytokine receptor γ-chain) (human, UniProt P31785 23-262, limits assumed)
T2 construct: Recombinant protein coated on the plate or immobilised on a CM5 chip; also called hu IL-2R; CD132
T2 sequence: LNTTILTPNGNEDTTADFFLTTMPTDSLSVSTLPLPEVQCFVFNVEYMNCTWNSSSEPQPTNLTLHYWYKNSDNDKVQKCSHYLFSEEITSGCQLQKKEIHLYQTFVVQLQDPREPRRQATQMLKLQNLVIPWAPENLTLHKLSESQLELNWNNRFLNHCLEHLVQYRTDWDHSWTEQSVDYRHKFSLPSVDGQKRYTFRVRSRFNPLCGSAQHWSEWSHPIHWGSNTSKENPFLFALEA

T3: mouse IL-2Rα (mouse, UniProt P01590 22-236, limits assumed)
T3 construct: recombinant protein; also called mo IL-2R; mouse IL-2Ra
T3 sequence (looked up): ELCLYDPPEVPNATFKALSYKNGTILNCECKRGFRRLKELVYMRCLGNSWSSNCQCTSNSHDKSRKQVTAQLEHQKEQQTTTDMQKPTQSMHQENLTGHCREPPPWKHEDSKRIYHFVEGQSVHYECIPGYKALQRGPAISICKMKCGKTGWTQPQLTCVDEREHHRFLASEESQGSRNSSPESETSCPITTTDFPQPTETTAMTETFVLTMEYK

T4: human IL-2Rα (human, UniProt P01589 22-240, limits assumed)
T4 construct: recombinant protein; also called hu IL-2R; human IL-2Ra
T4 sequence: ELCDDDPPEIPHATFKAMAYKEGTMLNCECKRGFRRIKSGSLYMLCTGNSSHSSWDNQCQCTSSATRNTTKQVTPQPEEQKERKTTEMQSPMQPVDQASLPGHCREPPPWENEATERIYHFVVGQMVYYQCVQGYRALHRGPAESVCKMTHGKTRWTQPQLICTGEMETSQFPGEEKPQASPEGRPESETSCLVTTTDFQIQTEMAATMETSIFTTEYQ

B1: 38-MP07A11 (VHH)
VHH: QVQLVESGGGLVQAGGSLRLSCAASGRSLSRDAMGWFRQAPGKEREFVAVMSWGGDTFYTDSVEGRFTFSRDNAKNAVYLEMNDLQPEDTAVYYCAAAPTSFATTAYSSSNSYSYWGRGTQVTVSS
notes: VHH in periplasmic extract; also called FJ1427_P035MP07A11; clone nr
B2: FJ1427_P035MP04E09 (VHH)
VHH: QVQLVESGGGLVQAGGSLRLSCAASGRTLSRYAMGWFRQAPGKEREFVTANSWGGDTYYADSVQGRSTFSRDNAKNTVYLQMNSLQPEDTAVYYCAAAPTSFATTAYSSSNSYAYWGQGTQVTVSS
notes: VHH in periplasmic extract; also called clone nr
B3: FJ1427_P035MP04D10 (VHH)
VHH: B2 VHH with S67F
notes: VHH in periplasmic extract; also called clone nr; 364
B4: FJ1427_P035MP04H01 (VHH)
VHH: B2 VHH with S67F
notes: as for B2
B5: FJ1427_P035MP04E11 (VHH)
VHH: B2 VHH with S67F
notes: as for B2
B6: FJ1427_P035MP04H05 (VHH)
VHH: B2 VHH with S67F
notes: as for B2
B7: FJ1427_P035MP04E08 (VHH)
VHH: B2 VHH with S67F
notes: as for B2
B8: FJ1427_P035MP04B09 (VHH)
VHH: B2 VHH with S67F
notes: as for B2
B9: FJ1427_P035MP04E01 (VHH)
VHH: B2 VHH with S67F
notes: as for B2
B10: FJ1427_P035MP04C02 (VHH)
VHH: B2 VHH with S67F
notes: as for B2
B11: FJ1427_P035MP04F06 (VHH)
VHH: B2 VHH with S67F
notes: as for B2
B12: FJ1427_P035MP04G02 (VHH)
VHH: B2 VHH with S67F
notes: as for B2
B13: FJ1427_P035MP04A02 (VHH)
VHH: B2 VHH with S67F
notes: as for B2
B14: FJ1427_P035MP04F01 (VHH)
VHH: B2 VHH with S67F
notes: as for B2
B15: FJ1427_P035MP04B12 (VHH)
VHH: B2 VHH with S67F
notes: as for B2
B16: FJ1427_P035MP04G04 (VHH)
VHH: B2 VHH with M34V, Y58F, S67F, Q86L, T90A, A114K, Y115V
notes: as for B2
B17: FJ1427_P035MP04F03 (VHH)
VHH: B2 VHH with Y32N, T49A, N51D, Y58F, Q64E, S67F, T77A, A97G, A114R
notes: VHH in periplasmic extract; also called clone nr; 310
B18: FJ1427_P035MP04H03 (VHH)
VHH: QLQLVESGGGLVQAGGSLRLSCAASGRTLSRYAMGWFRQAPGKEREFVAADSWGGDTFYADSVEGRFTFSRDNAKNAAYLQMNSLQPEDTATYYCAGAPTSFATTAYSSSNSYRYWGQGTQVTVSS
notes: as for B2
B19: FJ1427_P035MP04H07 (VHH)
VHH: B2 VHH with V2L, S67F
notes: as for B2
B20: FJ1427_P035MP04F07 (VHH)
VHH: B2 VHH with Q1E, S67F
notes: as for B2
B21: 4-MP01F04 (VHH)
VHH: QVQLVESGGGLVQAGGSLRLSCAASGGTFRTRNMGWFRRAPGKEREFVAAVSWNVDNKLYADSVKGRFTISRDNGRNMVYLQMNSLKPEDTAVYYCAADNIPLSSDMRPTATEYDYWGQGTQVTVSS
notes: periplasmic extract; also called FJ1427_P035MP01F04
B22: FJ1427_P035MP05E04 (VHH)
VHH: B21 VHH with N54S, D62G, Y114F, D115G, Q122R
notes: periplasmic extract; also called clone nr

Target: T1, mouse IL-2Rγ
Assay: PE binding ELISA, periplasmic extract on coated protein
Summary of the method: (§1)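 Read-out: OD at 450 nm, specificity called versus negative controls. Receptor chains (human or mouse IL-2Rα, β, γ) were coated directly overnight at 4° C; 4% Marvel/PBS block 1 h; P.E. at 1:5 dilution in 1% Marvel/PBS incubated 1 h.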

Binder	OD (PE binding ELISA)
B1	0.173 OD450 nm
B2	0.07 OD450 nm
B3	0.077 OD450 nm
B4	0.109 OD450 nm
B5	0.065 OD450 nm
B6	0.08 OD450 nm
B7	0.078 OD450 nm
B8	0.083 OD450 nm
B9	0.067 OD450 nm
B10	0.07 OD450 nm
B11	0.077 OD450 nm
B12	0.066 OD450 nm
B13	0.085 OD450 nm
B14	0.085 OD450 nm
B15	0.074 OD450 nm
B16	0.276 OD450 nm
B17	0.3 OD450 nm
B18	0.442 OD450 nm
B19	0.076 OD450 nm
B20	0.064 OD450 nm

Target: T2, human IL-2Rγ (common cytokine receptor …)
Assay: as above
Summary of the method: as §1

Binder	OD (PE binding ELISA)
B1	1.31 OD450 nm
B2	0.652 OD450 nm
B3	1.26 OD450 nm
B4	1.67 OD450 nm
B5	0.94 OD450 nm
B6	1.57 OD450 nm
B7	1.23 OD450 nm
B8	1.54 OD450 nm
B9	1.08 OD450 nm
B10	1 OD450 nm
B11	1.41 OD450 nm
B12	0.98 OD450 nm
B13	1.45 OD450 nm
B14	1.66 OD450 nm
B15	0.936 OD450 nm
B16	1.67 OD450 nm
B17	1.77 OD450 nm
B18	1.25 OD450 nm
B19	0.919 OD450 nm
B20	0.789 OD450 nm

Target: T3, mouse IL-2Rα
Assay: ELISA, P.E. on coated antigen
Summary of the method: as §1

Binder	OD (PE binding ELISA)
B21	0.046 OD450 nm
B22	0.046 OD450 nm

Target: T4, human IL-2Rα
Assay: ELISA, P.E. on coated antigen
Summary of the method: as §1

Binder	OD (PE binding ELISA)
B21	2.49 OD450 nm
B22	2.38 OD450 nm

Target: T3, mouse IL-2Rα
Assay: SPR, P.E. on immobilised antigen
Summary of the method: (§2)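 Immobilised receptor density: ~2500 RU (CM5, amine coupling). Analyte: VHH-containing P.E., 30 uL/min. Read-out: off-rate over 120s.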

Binder	koff
B21	0.256 s⁻¹
B22	0.196 s⁻¹

Target: T4, human IL-2Rα
Assay: SPR, P.E. on immobilised antigen
Summary of the method: as §2

Binder	koff
B21	0.000258 s⁻¹
B22	0.00158 s⁻¹

Target: T1, mouse IL-2Rγ
Assay: SPR off-rate ranking, periplasmic extract on immobilised protein
Summary of the method: as §2

Binder	koff
B1	0.0149 s⁻¹
B2	0.109 s⁻¹
B3	0.12 s⁻¹
B4	0.104 s⁻¹
B5	0.117 s⁻¹
B6	0.108 s⁻¹
B7	0.122 s⁻¹
B8	0.122 s⁻¹
B9	0.109 s⁻¹
B10	0.126 s⁻¹
B11	0.116 s⁻¹
B12	0.114 s⁻¹
B13	0.126 s⁻¹
B14	0.11 s⁻¹
B15	0.116 s⁻¹
B16	0.0666 s⁻¹
B17	0.061 s⁻¹
B18	0.0297 s⁻¹
B19	0.101 s⁻¹
B20	0.156 s⁻¹

Target: T2, human IL-2Rγ (common cytokine receptor …)
Assay: as above
Summary of the method: as §2

Binder	koff
B1	0.00235 s⁻¹
B2	0.00162 s⁻¹
B3	0.00139 s⁻¹
B4	0.00206 s⁻¹
B5	0.00149 s⁻¹
B6	0.00273 s⁻¹
B7	0.00197 s⁻¹
B8	0.00146 s⁻¹
B9	0.00266 s⁻¹
B10	0.00196 s⁻¹
B11	0.00298 s⁻¹
B12	0.00148 s⁻¹
B13	0.00306 s⁻¹
B14	0.00268 s⁻¹
B15	0.00344 s⁻¹
B16	0.00122 s⁻¹
B17	0.00074 s⁻¹
B18	0.001 s⁻¹
B19	0.00154 s⁻¹
B20	0.00249 s⁻¹
